# Results from the supplement of paper PMC9112550, “Optimization of the antimicrobial peptide Bac7 by deep mutational scanning” (BMC Biology, 2022).
# System: Escherichia coli TOP10
# Assay: shrunken log2 fold change of peptide-encoding DNA abundance (4.5 h post-induction vs induction); higher = less antimicrobial activity (less host growth inhibition)
# Conditions: time post-induction: 4.5 h; library: site-saturation at positions 5, 18, 19, 20
# 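Note: peptides expressed intracellularly from a pBAD plasmid library in pooled LB shake-flask culture, induced with 0.3% L-arabinose, DNA abundance read by NGS, three biological replicates, DESeq2 with apeglm shrinkage.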
row,Sequence,shrunken log2 fold change
1,RRIRMRPPRLPRPRPRPSTRPRP,0.406
2,RRIRQRPPRLPRPRPRPYNYPRP,-1.44
3,RRIRQRPPRLPRPRPRPHFEPRP,0.154
4,RRIRPRPPRLPRPRPRPQWYPRP,-0.257
5,RRIRSRPPRLPRPRPRPASCPRP,0.131
6,RRIRMRPPRLPRPRPRPQSQPRP,0.226
7,RRIRHRPPRLPRPRPRPDSLPRP,-0.0392
8,RRIRMRPPRLPRPRPRPMHIPRP,0.0159
9,RRIRCRPPRLPRPRPRPPHLPRP,0.079
10,RRIRHRPPRLPRPRPRPLGPPRP,0.191
11,RRIRFRPPRLPRPRPRPPIQPRP,0.0333
12,RRIRGRPPRLPRPRPRPSGFPRP,0.547
13,RRIRVRPPRLPRPRPRPVNEPRP,0.0839
14,RRIRTRPPRLPRPRPRPGLQPRP,-0.138
15,RRIRMRPPRLPRPRPRPAWNPRP,0.43
16,RRIRVRPPRLPRPRPRPVSRPRP,0.37
17,RRIRFRPPRLPRPRPRPDRMPRP,-0.00758
18,RRIRTRPPRLPRPRPRPIILPRP,-0.25
19,RRIRERPPRLPRPRPRPLCSPRP,-0.512
20,RRIRVRPPRLPRPRPRPLSEPRP,0.0246
21,RRIRGRPPRLPRPRPRPKWYPRP,0.806
22,RRIRLRPPRLPRPRPRPIWQPRP,0.0488

row,Sequence,shrunken log2 fold change
1,RRIRQRPPRLPRPRPRPACYPRP,-0.18
2,RRIRGRPPRLPRPRPRPPETPRP,1.24
3,RRIRKRPPRLPRPRPRPLNEPRP,0.0114
4,RRIRYRPPRLPRPRPRPMMYPRP,-0.00674
5,RRIRHRPPRLPRPRPRPSCHPRP,-0.509
6,RRIRIRPPRLPRPRPRPNKLPRP,-0.499
7,RRIRQRPPRLPRPRPRPRRKPRP,0.192
8,RRIRHRPPRLPRPRPRPKRWPRP,0.293
9,RRIRMRPPRLPRPRPRPSGFPRP,0.411
10,RRIRKRPPRLPRPRPRPVYPPRP,0.293
11,RRIRVRPPRLPRPRPRPWPEPRP,0.465
12,RRIRDRPPRLPRPRPRPMMQPRP,0.0408
13,RRIRTRPPRLPRPRPRPISKPRP,-0.17
14,RRIRYRPPRLPRPRPRPMPYPRP,-0.0899
15,RRIRTRPPRLPRPRPRPRFHPRP,0.192
16,RRIRRRPPRLPRPRPRPVHHPRP,-0.468
17,RRIRIRPPRLPRPRPRPSKPPRP,-0.189
18,RRIRTRPPRLPRPRPRPCNFPRP,-1.39
19,RRIRRRPPRLPRPRPRPYAPPRP,-0.0565
20,RRIRARPPRLPRPRPRPWAEPRP,0.264
21,RRIRHRPPRLPRPRPRPDDSPRP,-0.01
22,RRIRHRPPRLPRPRPRPNACPRP,-0.0122

row,Sequence,shrunken log2 fold change
1,RRIRIRPPRLPRPRPRPTSTPRP,-0.0986
2,RRIRDRPPRLPRPRPRPYKHPRP,-1.13
3,RRIRIRPPRLPRPRPRPYHPPRP,-0.0475
4,RRIRFRPPRLPRPRPRPVDMPRP,0.00603
5,RRIRMRPPRLPRPRPRPSRTPRP,0.715
6,RRIRDRPPRLPRPRPRPVAMPRP,0.633
7,RRIRHRPPRLPRPRPRPRQDPRP,-0.189
8,RRIRSRPPRLPRPRPRPLYYPRP,-0.547
9,RRIRDRPPRLPRPRPRPHLAPRP,0.302
10,RRIRWRPPRLPRPRPRPETLPRP,0.0224
11,RRIRWRPPRLPRPRPRPDPHPRP,0.135
12,RRIRARPPRLPRPRPRPKFFPRP,0.305
13,RRIRFRPPRLPRPRPRPMHCPRP,-0.253
14,RRIRGRPPRLPRPRPRPATWPRP,0.565
15,RRIRARPPRLPRPRPRPKYPPRP,-0.178
16,RRIRVRPPRLPRPRPRPTNWPRP,0.202
17,RRIRLRPPRLPRPRPRPVDWPRP,0.252
18,RRIRHRPPRLPRPRPRPWKKPRP,-0.0699
19,RRIRLRPPRLPRPRPRPSEPPRP,-0.114
20,RRIRYRPPRLPRPRPRPVAVPRP,3.17
21,RRIRMRPPRLPRPRPRPQLKPRP,1.42
22,RRIRWRPPRLPRPRPRPAGFPRP,0.272

row,Sequence,shrunken log2 fold change
1,RRIRERPPRLPRPRPRPCYPPRP,-0.498
2,RRIRVRPPRLPRPRPRPYKYPRP,-0.835
3,RRIRQRPPRLPRPRPRPDQGPRP,-0.0223
4,RRIRARPPRLPRPRPRPRVYPRP,0.441
5,RRIRERPPRLPRPRPRPNYTPRP,-0.773
6,RRIRHRPPRLPRPRPRPDQPPRP,0.183
7,RRIRPRPPRLPRPRPRPSKKPRP,-0.108
8,RRIRWRPPRLPRPRPRPCWMPRP,0.0693
9,RRIRHRPPRLPRPRPRPSLKPRP,-0.488
10,RRIRIRPPRLPRPRPRPEIWPRP,-0.18
11,RRIRLRPPRLPRPRPRPPLGPRP,0.409
12,RRIRTRPPRLPRPRPRPQWFPRP,-0.0925
13,RRIRNRPPRLPRPRPRPYWSPRP,-0.195
14,RRIRVRPPRLPRPRPRPNFIPRP,-0.168
15,RRIRLRPPRLPRPRPRPQWPPRP,0.28
16,RRIRERPPRLPRPRPRPMDFPRP,-0.0298
17,RRIRLRPPRLPRPRPRPPCVPRP,-0.0544
18,RRIRARPPRLPRPRPRPLWTPRP,0.115
19,RRIRFRPPRLPRPRPRPSTDPRP,-0.667
20,RRIRCRPPRLPRPRPRPFCLPRP,-0.327
21,RRIRARPPRLPRPRPRPDHVPRP,0.0166
22,RRIRVRPPRLPRPRPRPCIEPRP,-0.351

row,Sequence,shrunken log2 fold change
1,RRIRKRPPRLPRPRPRPSGCPRP,-0.00526
2,RRIRMRPPRLPRPRPRPVCYPRP,-0.21
3,RRIRFRPPRLPRPRPRPWHMPRP,-0.121
4,RRIRVRPPRLPRPRPRPKSTPRP,-0.158
5,RRIRWRPPRLPRPRPRPCRNPRP,-0.0199
6,RRIRMRPPRLPRPRPRPARDPRP,1.65
7,RRIRARPPRLPRPRPRPSDQPRP,-0.0615
8,RRIRWRPPRLPRPRPRPFWQPRP,-0.00499
9,RRIRLRPPRLPRPRPRPSHVPRP,-0.0453
10,RRIRHRPPRLPRPRPRPGWQPRP,0.33
11,RRIRVRPPRLPRPRPRPDDSPRP,0.13
12,RRIRYRPPRLPRPRPRPDFFPRP,0.373
13,RRIRARPPRLPRPRPRPATAPRP,0.452
14,RRIRQRPPRLPRPRPRPIGCPRP,0.0253
15,RRIRPRPPRLPRPRPRPQLAPRP,0.417
16,RRIRTRPPRLPRPRPRPYCHPRP,-0.213
17,RRIRWRPPRLPRPRPRPAITPRP,0.188
18,RRIRDRPPRLPRPRPRPTCEPRP,0.705
19,RRIRRRPPRLPRPRPRPNDMPRP,0.13
20,RRIRFRPPRLPRPRPRPSCEPRP,-0.619
21,RRIRKRPPRLPRPRPRPLDPPRP,0.613
